Each substance was assayed against duck STING-LgBiT-Myc (pBiT-STING-LgBiT-Myc) (assay: NanoBiT luciferase complementation in DEFs). Conditions: pBiT-STING-LgBiT-Myc 400 ng/well; pBiT-2KNS4B-SmBiT-Flag or mutant 400 ng/well; 20 h posttransfection; parent: est. 1.7e6; read off a plot.
In the case of “duck TMUV 2KNS4B-SmBiT-Flag (pBiT-2KNS4B-SmBiT-Flag) D34A; L35A; R36A”, the response was 830000 RLU. For “duck TMUV 2KNS4B-SmBiT-Flag (pBiT-2KNS4B-SmBiT-Flag) E7A; Q8A; T9A”, the response was 830000 RLU. Work on “duck TMUV 2KNS4B-SmBiT-Flag (pBiT-2KNS4B-SmBiT-Flag) G4A; W5A; L6A” yielded a response of 1.3e+06 RLU. For “duck TMUV 2KNS4B-SmBiT-Flag (pBiT-2KNS4B-SmBiT-Flag) K10A; K11A; D12A”, the response was 1.4e+06 RLU. “duck TMUV 2KNS4B-SmBiT-Flag (pBiT-2KNS4B-SmBiT-Flag) N1A; E2A; M3A” showed a response of 930000 RLU.

Same assay, conditions: pBiT-STING-LgBiT-Myc 400 ng/well; pBiT-2KNS4B-SmBiT-Flag or mutant 400 ng/well; 20 h posttransfection; parent: est. 3.3e7; read off a plot
“duck TMUV 2KNS4B-SmBiT-Flag (pBiT-2KNS4B-SmBiT-Flag) D12A” gave a response of 2.4e+07 RLU. With “duck TMUV 2KNS4B-SmBiT-Flag (pBiT-2KNS4B-SmBiT-Flag) D34A” the response was 1.7e+07 RLU. Substance “duck TMUV 2KNS4B-SmBiT-Flag (pBiT-2KNS4B-SmBiT-Flag) E2A” has a response of 2.4e+07 RLU. “duck TMUV 2KNS4B-SmBiT-Flag (pBiT-2KNS4B-SmBiT-Flag) E7A” showed a response of 2.5e+07 RLU. “duck TMUV 2KNS4B-SmBiT-Flag (pBiT-2KNS4B-SmBiT-Flag) G4A” gave a response of 2.3e+07 RLU. With “duck TMUV 2KNS4B-SmBiT-Flag (pBiT-2KNS4B-SmBiT-Flag) K10A” the response was 2e+07 RLU. “duck TMUV 2KNS4B-SmBiT-Flag (pBiT-2KNS4B-SmBiT-Flag) K11A” gave a response of 2.6e+07 RLU. In the case of “duck TMUV 2KNS4B-SmBiT-Flag (pBiT-2KNS4B-SmBiT-Flag) L6A”, the response was 2.7e+07 RLU. With “duck TMUV 2KNS4B-SmBiT-Flag (pBiT-2KNS4B-SmBiT-Flag) L35A” the response was 2.6e+07 RLU. For “duck TMUV 2KNS4B-SmBiT-Flag (pBiT-2KNS4B-SmBiT-Flag) M3A”, the response was 2.2e+07 RLU. In the case of “duck TMUV 2KNS4B-SmBiT-Flag (pBiT-2KNS4B-SmBiT-Flag) N1A”, the response was 3.6e+07 RLU. Substance “duck TMUV 2KNS4B-SmBiT-Flag (pBiT-2KNS4B-SmBiT-Flag) Q8A” has a response of 2.7e+07 RLU. “duck TMUV 2KNS4B-SmBiT-Flag (pBiT-2KNS4B-SmBiT-Flag) R36A” was tested, and the response was 1.9e+07 RLU. “duck TMUV 2KNS4B-SmBiT-Flag (pBiT-2KNS4B-SmBiT-Flag) T9A” gave a response of 2.9e+07 RLU. With “duck TMUV 2KNS4B-SmBiT-Flag (pBiT-2KNS4B-SmBiT-Flag) W5A” the response was 1.5e+07 RLU.

Source: PMC8165282
